What all share (assay type): cell-based
The test system of one assay is L. gasseri. In words: Survival of L. gasseri in lactate with LF. Particulars: rHLF 2 mg/ml in lactate, 2 h of incubation. The method, then:
(§1) L. gasseri and L. jensenii were cultured on chocolate-agar plates for 24 h in 5% CO2/95% air. They were thereafter harvested and added to BHI (0.34%). After washing the bacterial solutions were adjusted spectrophotometrically and diluted to 8×10^6 bacteria/ml.
(§2) Washed cells were suspended in 0.2% BP (pH 7.0) or BHI medium diluted 1/10 (0.34%, pH 6.7-6.9) (Difco, USA). The concentration of bacterial or fungal cells was spectrophotometrically adjusted. LF or peptide, serially diluted in BHIdil or BP by twofold steps (unless otherwise stated), were added in triplicate to the wells of a microtiterplate (200 ul per well). The bacterial or yeast cell solutions were added in 10 ul volumes to give a final concentration of approximately 2×10^5 cells per ml. The concentration of the stock solution was always checked by viable counts. The microplate was incubated at 37° C. in a humid chamber for 2 h unless otherwise stated. Five ul were taken from each well and added as a drop onto a blood agar plate and incubated over night at 37° C. In some experiments more thorough viable counts were performed and the killing was expressed as remaining colony forming units in relation to the inoculum. The lower limit for detection of microorganisms was 200 CFU/ml.
(§3) L. gasseri survived better in the assay system than did L. jensenii. Undiluted lactate (5%) affected the survival of Lactobacillus.

A further assay deals with E. coli 06. In words: Microbicidal microplate-droplet assay, E. coli. Particulars: 1 mg/ml, lactate 0.2% and lactate free solution, 2 h. The method, then:
as §2, with “The bacterial strains S. aureus 1800 (CCUG 1800), E. coli 06, and the yeast C. albicans (ATCC 64549) have been used in the microplate assay. All microorganisms were cultured in brain heart infusion medium (BHI) on a shaker over night at 37° C. A volume of the culture was transferred to a new tube with BHI and incubated for two more h on the shaker. The bacteria were harvested in the log phase, washed once and thereafter suspended in the broth used for the microplate assay. The suspension was adjusted spectrophotometrically and diluted to a concentration of approximately 4×10^6 cells per ml at 650 nm. Washed” for “Washed”, “CFU/ml. The antimicrobial activity of human LF was analysed by the microbicidal assay described above. Different microbes such as C. albicans, E. coli and S. aureus were analysed with respect to their survival in lactate (not containing the inert gel base, which makes the gel unsuitable for the microbicidal assay) containing LF.” for “CFU/ml.”

The next assay relates to L. jensenii. In words: Survival of L. jensenii in lactate with LF. The settings on record: 2 mg/ml, lactate 0.2%, 2 h. How it is done: as §1, §2, §3
In a further assay the test system is C. albicans (ATCC 64549). Kind of assay: Microbicidal microplate assay (viable counts), C. albicans. How it is done: The bacterial strains S. aureus 1800 (CCUG 1800), E. coli 06, and the yeast C. albicans (ATCC 64549) have been used in the microplate assay. All microorganisms were cultured in brain heart infusion medium (BHI) on a shaker over night at 37° C. A volume of the culture was transferred to a new tube with BHI and incubated for two more h on the shaker. The bacteria were harvested in the log phase, washed once and thereafter suspended in the broth used for the microplate assay. The suspension was adjusted spectrophotometrically and diluted to a concentration of approximately 4×10^6 cells per ml at 650 nm. Washed cells were suspended in 0.2% BP (pH 7.0) or BHI medium diluted 1/10 (0.34%, pH 6.7-6.9) (Difco, USA). The concentration of bacterial or fungal cells was spectrophotometrically adjusted. LF or peptide, serially diluted in BHIdil or BP by twofold steps (unless otherwise stated), were added in triplicate to the wells of a microtiterplate (200 ul per well). The bacterial or yeast cell solutions were added in 10 ul volumes to give a final concentration of approximately 2×10^5 cells per ml. The concentration of the stock solution was always checked by viable counts. The microplate was incubated at 37° C. in a humid chamber for 2 h unless otherwise stated. Five ul were taken from each well and added as a drop onto a blood agar plate and incubated over night at 37° C. In some experiments more thorough viable counts were performed and the killing was expressed as remaining colony forming units in relation to the inoculum. The lower limit for detection of microorganisms was 200 CFU/ml. The antimicrobial activity of human LF was analysed by the microbicidal assay described above. Different microbes such as C. albicans, E. coli and S. aureus were analysed with respect to their survival in lactate (not containing the inert gel base, which makes the gel unsuitable for the microbicidal assay) containing LF. […] LF was incubated together with various concentrations of lactate diluted in 0.2% bactopeptone and C. albicans for 2 h. Thereafter each solution was analysed for viable counts.

Entries after “also recorded” stand apart in the source; their conditions may differ.

B1: rHLF: Recombinant human LF obtained from Agennix (protein, UniProt P02788 20-710, looked up)
Lactotransferrin: GRRRSVQWCAVSQPEATKCFQWQRNMRKVRGPPVSCIKRDSPIQCIQAIAENRADAVTLDGGFIYEAGLAPYKLRPVAAEVYGTERQPRTHYYAVAVVKKGGSFQLNELQGLKSCHTGLRRTAGWNVPIGTLRPFLNWTGPPEPIEAAVARFFSASCVPGADKGQFPNLCRLCAGTGENKCAFSSQEPYFSYSGAFKCLRDGAGDVAFIRESTVFEDLSDEAERDEYELLCPDNTRKPVDKFKDCHLARVPSHAVVARSVNGKEDAIWNLLRQAQEKFGKDKSPKFQLFGSPSGQKDLLFKDSAIGFSRVPPRIDSGLYLGSGYFTAIQNLRKSEEEVAARRARVVWCAVGEQELRKCNQWSGLSEGSVTCSSASTTEDCIALVLKGEADAMSLDGGYVYTAGKCGLVPVLAENYKSQQSSDPDPNCVDRPVEGYLAVAVVRRSDTSLTWNSVKGKKSCHTAVDRTAGWNIPMGLLFNQTGSCKFDEYFSQSCAPGSDPRSNLCALCIGDEQGENKCVPNSNERYYGYTGAFRCLAENAGDVAFVKDVTVLQNTDGNNNEAWAKDLKLADFALLCLDGKRKPVTEARSCHLAMAPNHAVVSRMDKVERLKQVLLHQQAKFGRNGSDCPDKFCLFQSETKNLLFNDNTECLARLHGKTTYEKYLGPQYVAGITNLKKCSTSPLLEACEFLRK
B1: in the assay with L. gasseri, the “effect on L. gasseri survival beyond that of lactate” value is recorded as “no additional effects; also recorded: survived equally well”. Besides, the “killing of E. coli, rHLF compared with LF” value in the assay on E. coli 06 is reported as “the most effective of the two LFs”. Further, the “resistance of L. jensenii to the antibacterial effect” value in the assay on L. jensenii is recorded as “more resistant”. Besides, the “fungicidal effect on C. albicans, rHLF in comparison to LF” value is on record as “the stronger effect of rHLF was observed only after a longer incubation time” with C. albicans (ATCC 64549) (lactate 0.2%, 2 and 20 h); “stronger effect” with C. albicans (ATCC 64549) (lactate 1%, higher LF concentrations). Further, the “killing of the inoculate” value with C. albicans (ATCC 64549) (rHLF 0.5-1.0 mg/ml, lactate 1%, 2 h) was about 99%.

(Values after patent US20080161234A1, “Composition Comprising Lactic Acid and Lactoferrin” (priority 2004, published 2008).)
